The source of these data is the RNAGym collection of RNA variant scans (doi:10.1021/acssynbio.7b00057).

B1: Pistol ribozyme (parent)
chain: GGGUCGUUGUUCCAUAAUCGCGUGGAUAUGGCACGCAAGUUUCUACCGGGCACCGUAAAUGUCCGACUGGAGCCGUUCGGGCGGCUAUAAACAGACCUCAGGCCCGAAGCGUGGCGGCACCUGCCGCCGGUGGUAAAAAAGAUCGGAAGAGCACACGUCU

This data set covers variants of B1. As to the kind of experiment: aptazyme ON/OFF ratio, guanine; higher = stronger switching; co-transcriptional cleavage with and without guanine.
For U7C U8A G9A U10C U11A C12G C13G, the “aptazyme ON/OFF ratio” value is 1.17.
The figure for U7C U8A G9A U10C U11A C12G C13U is 1.18.
Turning to U7C U8A G9A U10C U11A C12G C13A, the “aptazyme ON/OFF ratio” value was 1.12.
The figure for U7C U8A G9A U10C U11C C12A is 1.09; for U7C U8A G9A U10C U11C C12G it is 1.09.
The figure for U7C U8A G9A U10C U11C C12U is 1.04.
The figure for U7C G9U U10G U11C C12U C13U is 1.19; for U7C G9U U10G U11C C12U C13A it is 1.19; for U7C G9U U10G U11C C12U C13G it is 1.05.
Take U7C G9U U11A C12A: the “aptazyme ON/OFF ratio” value turned out to be 1.36.
The figure for U7C G9U U11A C12G is 1.33.
Then U7C G9U U11A C12U, with 1.39; and U7C G9U U11G C12G C13U, with 1.1; and U7C G9U U11G C12G C13G, with 1.17.
In the case of U7C G9U U11G C12G C13A, the “aptazyme ON/OFF ratio” value was found to be 1.18.
The figure for U7C U8A G9A U10C C12A is 1.19; for U7C U8A G9A U10C C12U it is 1.58; for U7C U8A G9A U10C C12G it is 1.2.
Then U7C U8A C12A C13A, with 1.34; and U7C U8A C12A C13G, with 1.09.
Regarding U7C U8A C12A C13U, the “aptazyme ON/OFF ratio” value is 1.39.
In the case of U7C U8A G9A U10A C13U, the “aptazyme ON/OFF ratio” value was 1.26.
The figure for U7C U8A G9A U10A C13A is 1.15.
Then U7C U8A G9A U10A C13G, with 1.09; and U7C U8A G9A U10A U11G C12A, with 1.05; and U7C U8A G9A U10A U11G C12U, with 1.14.
The figure for U7C U8A G9A U10A U11G C12G is 1.12.
For U7C U8A C12G C13G, the “aptazyme ON/OFF ratio” value was found to be 1.23.
The figure for U7C U8A C12G C13A is 1.14; for U7C U8A C12G C13U it is 1.3; for U7C G9U U11A it is 1.41.
Then U7C G9U U11G, with 1.35; and U7C G9U U11C, with 1.12; and U7C G9U U11C C12U C13A, with 1.12.
Then U7C G9U U11C C12U C13G, with 1.05; and U7C G9U U11C C12U C13U, with 1.13; and U7C G9U U11C C13U, with 1.05.
On to U7C G9U U11C C13G, for which the “aptazyme ON/OFF ratio” value worked out at 1.02.
Turning to U7C G9U U11C C13A, the “aptazyme ON/OFF ratio” value was found to be 1.05.
Turning to U7C U8A G9A U10C U11A C12A C13A, the “aptazyme ON/OFF ratio” value worked out at 1.13.
In the case of U7C U8A G9A U10C U11A C12A C13U, the “aptazyme ON/OFF ratio” value was 1.15.
The figure for U7C U8A G9A U10C U11A C12A C13G is 1.1; for U7C U8A G9A U10C U11C C12U C13G it is 1.04.
Then U7C U8A G9A U10C U11C C12U C13A, with 1.03.
U7C U8A G9A U10C U11C C12U C13U: the “aptazyme ON/OFF ratio” value was determined as 1.04.
The figure for U7C U8A G9A U10C U11C C12A C13A is 1.03; for U7C U8A G9A U10C U11C C12A C13G it is 1.05; for U7C U8A G9A U10C U11C C12A C13U it is 1.09.
Then U7C U8A G9A U10A C12A C13U, with 1.26; and U7C U8A G9A U10A C12A C13A, with 1.19; and U7C U8A G9A U10A C12A C13G, with 1.18.
The figure for U7C G9U U10C C13A is 1.04; for U7C G9U U10C C13G it is 1.06.
As for U7C G9U U10C C13U, the “aptazyme ON/OFF ratio” value worked out at 1.5.
Turning to U7C G9U U10G U11A, the “aptazyme ON/OFF ratio” value was found to be 1.03.
Regarding U7C G9U U10G U11C, the “aptazyme ON/OFF ratio” value is 1.09.
Then U7C G9U U10G U11G, with 1.11.
Then U7C G9U U11C C12G C13G, with 1.06; and U7C G9U U11C C12G C13A, with 1.05.
The figure for U7C G9U U11C C12G C13U is 1.07.
U7C U8A G9A U10A U11G C12U C13G: the “aptazyme ON/OFF ratio” value amounted to 1.17.
Then U7C U8A G9A U10A U11G C12U C13U, with 1.22; and U7C U8A G9A U10A U11G C12U C13A, with 1.21; and U7C U8A G9A U10A U11A C12A C13A, with 1.24.
The figure for U7C U8A G9A U10A U11A C12A C13U is 1.18.
Then U7C U8A G9A U10A U11A C12A C13G, with 1.18; and U7C G9U U11A C13A, with 1.2; and U7C G9U U11A C13G, with 1.03.
In the case of U7C G9U U11A C13U, the “aptazyme ON/OFF ratio” value was 1.25.
U7C U8A G9A U10A U11A C12G: the “aptazyme ON/OFF ratio” value is 1.23.
The figure for U7C U8A G9A U10A U11A C12A is 1.2; for U7C U8A G9A U10A U11A C12U it is 1.19; for U7C G9U U10G C12A C13A it is 1.09.
On to U7C G9U U10G C12A C13G, for which the “aptazyme ON/OFF ratio” value is 1.13.
The figure for U7C G9U U10G C12A C13U is 1.24.
The figure for U7C U8A G9A U10C U11A C12A is 1.12; for U7C U8A G9A U10C U11A C12U it is 1.28.
The figure for U7C U8A G9A U10C U11A C12G is 1.14.
Regarding U7C G9U U10C U11G C12G C13U, the “aptazyme ON/OFF ratio” value was 1.11.
Then U7C G9U U10C U11G C12G C13A, with 1.1.
The figure for U7C G9U U10C U11G C12G C13G is 1.11; for U7C G9U U10C U11G C12A C13A it is 1.11.
The figure for U7C G9U U10C U11G C12A C13U is 1.11; for U7C G9U U10C U11G C12A C13G it is 1.1; for U7C G9U U10G U11G C13G it is 1.1.
As for U7C G9U U10G U11G C13U, the “aptazyme ON/OFF ratio” value was found to be 1.1.
Regarding U7C G9U U10G U11G C13A, the “aptazyme ON/OFF ratio” value turned out to be 1.09.
With U7C G9U U10C, the “aptazyme ON/OFF ratio” value was 2.79.
Then U7C G9U U10G, with 1.38; and U7C U8A G9A U10C U11G C12A C13G, with 1.16; and U7C U8A G9A U10C U11G C12A C13U, with 1.14.
Regarding U7C U8A G9A U10C U11G C12A C13A, the “aptazyme ON/OFF ratio” value amounted to 1.2.
The figure for U7C G9U U10G U11C C12A C13A is 1.17; for U7C G9U U10G U11C C12A C13U it is 1.17.
The figure for U7C G9U U10G U11C C12A C13G is 1.17; for U7C G9U U11A C12A C13U it is 1.29; for U7C G9U U11A C12A C13G it is 1.1.
The figure for U7C G9U U11A C12A C13A is 1.25.
For U7C U8A G9A C12U C13A, the “aptazyme ON/OFF ratio” value was determined as 1.19.
Then U7C U8A G9A C12U C13U, with 1.18.
With U7C U8A G9A C12U C13G, the “aptazyme ON/OFF ratio” value came to 1.19.
With U7C G9U U10C C12A, the “aptazyme ON/OFF ratio” value is 1.1.
Then U7C G9U U10C C12G, with 1.09; and U7C G9U U10C C12U, with 1.09.
With U7C U8A G9A U10C U11G C12G C13A, the “aptazyme ON/OFF ratio” value is 1.24.
Turning to U7C G9U U11A C12G C13U, the “aptazyme ON/OFF ratio” value is 1.14.
Then U7C G9U U11A C12G C13G, with 1.24; and U7C G9U U11A C12G C13A, with 1.2.
Then U7C G9U U10G U11G C12A C13U, with 1.17; and U7C G9U U10G U11G C12A C13G, with 1.1; and U7C G9U U10G U11G C12A C13A, with 1.1.
The figure for U7C G9U U10G U11G C12A is 1.22; for U7C G9U U10G U11G C12U it is 1.16; for U7C G9U U10G U11G C12G it is 1.14.
In the case of U7C G9U U10C U11A C12G C13U, the “aptazyme ON/OFF ratio” value amounted to 1.15.
Turning to U7C G9U U10C U11A C12G C13G, the “aptazyme ON/OFF ratio” value was determined as 1.23.
Then U7C G9U U10C U11A C12G C13A, with 1.19; and U7C G9U U10G C12U C13G, with 1.15.
Then U7C G9U U10G C12U C13U, with 1.69; and U7C G9U U10G C12U C13A, with 1.2; and U7C G9U U10C U11G C12A, with 1.09.
Then U7C G9U U10C U11G C12U, with 1.22.
Consider U7C G9U U10C U11G C12G, for which the “aptazyme ON/OFF ratio” value turned out to be 1.1.
Then U7C G9U U10G U11A C12G C13A, with 1.11; and U7C G9U U10G U11A C12G C13G, with 1.24; and U7C G9U U10G U11A C12G C13U, with 1.12.
The figure for U7C U8A G9A U10A U11C C12U C13G is 1.06; for U7C U8A G9A U10A U11C C12U C13U it is 1.1; for U7C U8A G9A U10A U11C C12U C13A it is 1.09.
The figure for U7C G9U U10G C12G C13U is 1.11; for U7C G9U U10G C12G C13A it is 1.2; for U7C G9U U10G C12G C13G it is 1.12.
Turning to U7C U8A G9A, the “aptazyme ON/OFF ratio” value is 1.22.
Then U7C U8A G9A U10A U11G C12A C13U, with 1.18; and U7C U8A G9A U10A U11G C12A C13A, with 1.11; and U7C U8A G9A U10A U11G C12A C13G, with 1.09.
The figure for U7C G9U U10G U11A C12A C13A is 1.2; for U7C G9U U10G U11A C12A C13G it is 1.13; for U7C G9U U10G U11A C12A C13U it is 1.44.
With U7C U8A G9A C12A C13G, the “aptazyme ON/OFF ratio” value worked out at 1.2.
Then U7C U8A G9A C12A C13U, with 1.15; and U7C U8A G9A C12A C13A, with 1.21; and U7C U8A G9A U10A U11C C12U, with 1.09.
The figure for U7C U8A G9A U10A U11C C12G is 1.21.
The figure for U7C U8A G9A U10A U11C C12A is 1.16; for U7C U8A G9A U10A C12G C13G it is 1.24; for U7C U8A G9A U10A C12G C13U it is 1.27.
As to U7C U8A G9A U10A C12G C13A, the “aptazyme ON/OFF ratio” value turned out to be 1.23.
The figure for U7C G9U U11C C12U is 1.16.
Then U7C G9U U11C C12G, with 1.08; and U7C G9U U11C C12A, with 1.26.
Then U7C U8A G9A U10A, with 1.69; and U7C U8A G9A U10C, with 3.41.
On to U7C G9U U10A U11G C12U C13G, for which the “aptazyme ON/OFF ratio” value was determined as 1.11.
Then U7C G9U U10A U11G C12U C13A, with 1.09; and U7C G9U U10A U11G C12U C13U, with 1.18.
Then U7C G9U U11G C12U, with 1.47; and U7C G9U U11G C12A, with 1.09.
With U7C G9U U11G C12G, the “aptazyme ON/OFF ratio” value turned out to be 1.18.
Then U7C G9U U10C U11G C12U C13U, with 1.16.
The figure for U7C G9U U10C U11G C12U C13G is 1.15; for U7C G9U U10C U11G C12U C13A it is 1.14.
Then U7C U8A G9A U10A U11C C12G C13A, with 1.14; and U7C U8A G9A U10A U11C C12G C13G, with 1.35.
For the variant U7C U8A G9A U10A U11C C12G C13U, the “aptazyme ON/OFF ratio” value is 1.18.
For U7C U8A C13G, the “aptazyme ON/OFF ratio” value came to 1.11.
The figure for U7C U8A C13A is 1.31.
